The record followed here is publication doi:10.1101/781922 (bioRxiv, 2019).

This experiment has as its target T1, Arabidopsis TIR1, coexpressed with AtASK1 (His10-eGFP-FLAG-(TEV)-AtTIR1 and His10-(TEV)-AtASK1) (Arabidopsis, UniProt Q570C0;Q39255).
T1 sequence 1: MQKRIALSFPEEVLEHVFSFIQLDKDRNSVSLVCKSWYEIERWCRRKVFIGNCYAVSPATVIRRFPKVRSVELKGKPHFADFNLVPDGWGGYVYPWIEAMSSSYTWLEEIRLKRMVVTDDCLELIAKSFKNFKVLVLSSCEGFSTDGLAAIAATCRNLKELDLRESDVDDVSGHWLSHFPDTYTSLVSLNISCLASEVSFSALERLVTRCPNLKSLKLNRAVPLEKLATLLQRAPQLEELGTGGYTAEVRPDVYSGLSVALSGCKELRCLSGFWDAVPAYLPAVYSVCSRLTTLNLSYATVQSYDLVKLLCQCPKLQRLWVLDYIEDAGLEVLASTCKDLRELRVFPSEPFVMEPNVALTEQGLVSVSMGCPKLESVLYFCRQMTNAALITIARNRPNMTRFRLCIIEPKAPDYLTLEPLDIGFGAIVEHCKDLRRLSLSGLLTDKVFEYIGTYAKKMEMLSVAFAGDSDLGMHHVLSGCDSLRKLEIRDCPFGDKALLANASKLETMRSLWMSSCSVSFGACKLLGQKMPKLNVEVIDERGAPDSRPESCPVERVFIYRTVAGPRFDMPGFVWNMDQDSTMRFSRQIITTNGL
T1 sequence 2: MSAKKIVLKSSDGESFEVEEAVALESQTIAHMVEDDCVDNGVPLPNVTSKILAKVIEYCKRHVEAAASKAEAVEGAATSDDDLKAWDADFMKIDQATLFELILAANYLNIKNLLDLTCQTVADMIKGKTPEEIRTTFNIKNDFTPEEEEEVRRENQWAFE
Kind of experiment: NMR titration.

B1: AXR3 DI/DII (N-terminal half, domains I and II, of the Aux/IAA protein AXR3/IAA17) (domain or fragment)
chain: MMGSVELNLRETELCLGLPGGDTVAPVTGNKRGFSETVDLKLNLNNEPANKEGSTTHDVVTFDSKEKSACPKDPAKPPAKAQVVGWPPVRSYRKNVMVSCQ
In the case of B1, the binding result is “binds”.
